The values below come from patent US20130230562.

The data set concerns the target ApoHsp (cage protein formed by the fusion protein of Hsp, DEVD motif and histidine polymer, labelled with Cy5.5 and BHQ3).

B1: caspase-8 (NCBI accession no: NP-001073593.1), human, purchased from R&D Systems (protein)
chain: SESQTLDKVYQMKSKPRGYCLIINNHNFAKAREKVPKLHSIRDRNGTHLDAGALTTTFEELHFEIKPHDDCTVEQIYEILKIYQLMDHSNMDCFICCILSHGDKGIIYGTDGQEAPIYELTSQFTGLKCPSLAGKPKVFFIQACQGDNYQKGIPVETDSEEQPYLEMDLSSPQTRYIPDEADFLLGMATVNNCVSYRNPAEGTWYIQSLCQSLRERCPRGDDILTILTEVNYEVSNKDDKKNMGKQMPQPTFTLRKKLVFPSD
Consider B1, for which the “fluorescence signal (Cy5.5 dequenching after cleavage, 96-well plate, 37 C, 2 hours)” value is “fluorescence did not occur in reactions with another two capases at all”.

B2: caspase-9 (NCBI accession no: NP-001220.2), human, purchased from R&D Systems (protein)
chain: MDEADRRLLRRCRLRLVEELQVDQLWDALLSRELFRPHMIEDIQRAGSGSRRDQARQLIIDLETRGSQALPLFISCLEDTGQDMLASFLRTNRQAAKLSKPTLENLTPVVLRPEIRKPEVLRPETPRPVDIGSGGFGDVGALESLRGNADLAYILSMEPCGHCLIINNVNFCRESGLRTRTGSNIDCEKLRRRFSSLHFMVEVKGDLTAKKMVLALLELAQQDHGALDCCVVVILSHGCQASHLQFPGAVYGTDGCPVSVEKIVNIFNGTSCPSLGGKPKLFFIQACGGEQKDHGFEVASTSPEDESPGSNPEPDATPFQEGLRTFDQLDAISSLPTPSDIFVSYSTFPGFVSWRDPKSGSWYVETLDDIFEQWAHSEDLQSLLLRVANAVSVKGIYKQMPGCFNFLRKKLFFKTS
B2: the “fluorescence signal (Cy5.5 dequenching after cleavage, 96-well plate, 37 C, 2 hours)” value is given as “fluorescence did not occur in reactions with another two capases at all”.
